Molecular target: human c-Met on cells (MKN-45, A549, HPAF, BxPC3) (human) (UniProt P08581)
Assay: cell-based or functional assay

Sequence of human c-Met on cells (MKN-45, A549, HPAF, BxPC3) (human) (P08581 25-1390): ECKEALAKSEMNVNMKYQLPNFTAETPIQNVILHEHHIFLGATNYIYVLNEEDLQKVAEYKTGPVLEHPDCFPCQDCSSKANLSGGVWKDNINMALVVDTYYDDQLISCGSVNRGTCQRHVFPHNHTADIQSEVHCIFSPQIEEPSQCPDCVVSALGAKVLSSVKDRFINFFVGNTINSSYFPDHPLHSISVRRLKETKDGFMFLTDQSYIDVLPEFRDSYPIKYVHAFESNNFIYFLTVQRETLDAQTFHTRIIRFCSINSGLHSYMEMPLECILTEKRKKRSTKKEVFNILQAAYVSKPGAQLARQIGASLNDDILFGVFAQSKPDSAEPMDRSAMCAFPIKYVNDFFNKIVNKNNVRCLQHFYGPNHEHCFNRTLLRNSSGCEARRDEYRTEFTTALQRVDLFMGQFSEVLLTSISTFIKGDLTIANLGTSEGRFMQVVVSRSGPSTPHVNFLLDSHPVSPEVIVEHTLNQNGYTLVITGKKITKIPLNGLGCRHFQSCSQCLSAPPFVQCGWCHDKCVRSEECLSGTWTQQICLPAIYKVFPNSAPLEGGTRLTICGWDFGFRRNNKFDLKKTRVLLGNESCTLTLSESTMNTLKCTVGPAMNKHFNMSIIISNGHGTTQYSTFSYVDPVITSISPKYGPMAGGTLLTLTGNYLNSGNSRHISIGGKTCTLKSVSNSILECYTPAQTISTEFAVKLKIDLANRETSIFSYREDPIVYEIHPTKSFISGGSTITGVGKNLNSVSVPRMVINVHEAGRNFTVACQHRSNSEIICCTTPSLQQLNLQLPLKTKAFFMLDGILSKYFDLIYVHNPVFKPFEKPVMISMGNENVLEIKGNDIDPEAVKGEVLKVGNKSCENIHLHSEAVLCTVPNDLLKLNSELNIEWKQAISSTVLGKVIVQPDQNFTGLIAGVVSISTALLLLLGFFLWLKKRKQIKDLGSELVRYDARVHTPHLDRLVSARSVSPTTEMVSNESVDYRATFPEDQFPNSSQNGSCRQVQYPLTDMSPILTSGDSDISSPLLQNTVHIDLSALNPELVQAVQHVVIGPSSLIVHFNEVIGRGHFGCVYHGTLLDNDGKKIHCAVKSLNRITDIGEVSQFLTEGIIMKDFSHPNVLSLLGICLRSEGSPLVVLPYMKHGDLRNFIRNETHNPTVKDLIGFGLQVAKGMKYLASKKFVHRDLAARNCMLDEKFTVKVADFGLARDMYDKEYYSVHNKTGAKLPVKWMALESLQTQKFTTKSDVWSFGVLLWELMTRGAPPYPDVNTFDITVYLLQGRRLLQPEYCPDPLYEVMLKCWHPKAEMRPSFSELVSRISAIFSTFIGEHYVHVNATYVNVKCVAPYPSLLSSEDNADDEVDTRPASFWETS

murine 5D5 antibody
down-regulation of total c-Met on the surface of MKN-45 cells: 50 to 60%

— US20170349667A1
